What was measured:
[1] = target: T1, pCREB/KIX ternary complex on CRE DNA (pCREB/KIX/CRE) (UniProt P16220-2 1-327; P45481 588-683, phosphoserine at 133 (Ser133)); assay: native gel or EMSA
[2] = target: T1, pCREB/KIX ternary complex on CRE DNA …; assay: native gel or EMSA; remark: listed apart in the source

T1 sequence (P16220 whole entry, chain 1 of 2): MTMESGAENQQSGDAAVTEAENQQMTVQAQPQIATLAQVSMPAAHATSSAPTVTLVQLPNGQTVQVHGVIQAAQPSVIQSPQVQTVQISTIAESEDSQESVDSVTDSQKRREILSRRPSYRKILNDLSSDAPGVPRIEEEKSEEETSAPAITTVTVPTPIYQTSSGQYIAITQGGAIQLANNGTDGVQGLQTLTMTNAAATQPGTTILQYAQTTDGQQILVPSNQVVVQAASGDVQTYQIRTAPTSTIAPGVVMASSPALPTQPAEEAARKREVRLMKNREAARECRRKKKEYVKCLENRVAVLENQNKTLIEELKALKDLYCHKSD
T1 sequence (P45481 588-683, chain 2 of 2): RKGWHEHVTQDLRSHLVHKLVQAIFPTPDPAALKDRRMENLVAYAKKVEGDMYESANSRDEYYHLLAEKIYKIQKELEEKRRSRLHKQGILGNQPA

B1: HTLV-1 Tax protein, Tax-His6 (natural protein)
chain: not shown
- apparent Kd on cyclin D1 CRE DNA [1]: 34 ± 5 nM
- apparent Kd on vCRE DNA [2]: 2.4 ± 0.1 nM
